Here are results for one molecule from PMC8011160.

Assay [1] concerns the target T1, fibrinogen (purified from human plasma) (human), P02671.
T1 chain 1: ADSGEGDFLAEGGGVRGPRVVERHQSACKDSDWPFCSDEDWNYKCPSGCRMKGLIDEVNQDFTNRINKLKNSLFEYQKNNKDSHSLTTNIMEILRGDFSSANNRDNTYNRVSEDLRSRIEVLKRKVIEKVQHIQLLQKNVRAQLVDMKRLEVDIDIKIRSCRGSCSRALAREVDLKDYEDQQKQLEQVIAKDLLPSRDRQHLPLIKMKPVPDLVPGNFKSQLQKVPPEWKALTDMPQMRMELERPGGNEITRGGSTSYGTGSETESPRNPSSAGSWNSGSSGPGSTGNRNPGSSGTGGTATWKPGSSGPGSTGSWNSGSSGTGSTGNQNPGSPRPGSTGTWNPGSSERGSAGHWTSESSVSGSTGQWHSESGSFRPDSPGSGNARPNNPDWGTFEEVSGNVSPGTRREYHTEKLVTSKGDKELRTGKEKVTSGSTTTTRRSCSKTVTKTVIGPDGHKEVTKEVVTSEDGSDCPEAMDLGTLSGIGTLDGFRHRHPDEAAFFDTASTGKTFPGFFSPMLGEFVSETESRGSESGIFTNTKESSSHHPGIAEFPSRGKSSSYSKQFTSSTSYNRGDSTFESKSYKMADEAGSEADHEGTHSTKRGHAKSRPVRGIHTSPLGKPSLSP
T1 chain 2: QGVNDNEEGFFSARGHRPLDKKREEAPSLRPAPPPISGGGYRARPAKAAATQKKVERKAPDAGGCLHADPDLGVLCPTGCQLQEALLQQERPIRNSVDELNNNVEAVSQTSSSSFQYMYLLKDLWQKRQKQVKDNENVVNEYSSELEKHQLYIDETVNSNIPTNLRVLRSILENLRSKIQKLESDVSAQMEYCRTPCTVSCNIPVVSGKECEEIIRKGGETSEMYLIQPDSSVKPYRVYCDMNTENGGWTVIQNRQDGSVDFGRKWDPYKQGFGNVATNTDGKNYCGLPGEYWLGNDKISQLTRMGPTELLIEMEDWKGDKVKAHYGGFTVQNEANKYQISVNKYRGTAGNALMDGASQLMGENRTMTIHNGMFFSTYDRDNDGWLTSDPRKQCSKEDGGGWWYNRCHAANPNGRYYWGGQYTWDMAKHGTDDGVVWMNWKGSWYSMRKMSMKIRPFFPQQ
T1 chain 3: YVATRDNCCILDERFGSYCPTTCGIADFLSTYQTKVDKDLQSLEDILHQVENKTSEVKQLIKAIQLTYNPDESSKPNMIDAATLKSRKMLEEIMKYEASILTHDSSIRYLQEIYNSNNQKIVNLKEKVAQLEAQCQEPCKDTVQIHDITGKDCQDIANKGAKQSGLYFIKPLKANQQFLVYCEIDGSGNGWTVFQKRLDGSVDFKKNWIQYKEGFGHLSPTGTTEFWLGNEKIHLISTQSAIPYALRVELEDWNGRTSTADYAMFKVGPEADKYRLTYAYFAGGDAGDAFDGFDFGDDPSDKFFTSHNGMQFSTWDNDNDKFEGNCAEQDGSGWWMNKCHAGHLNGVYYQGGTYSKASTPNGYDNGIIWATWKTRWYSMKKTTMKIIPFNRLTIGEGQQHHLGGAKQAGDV
Put plainly: ELISA; host protein coated on microtiter wells; recombinant protein varied from 0 to 2 μM; absorbance with BSA subtracted; apparent Kd from the half-maximal binding concentration (GraphPad Prism 6). As to conditions: remark: other sources report otherwise.

The target of assay [2] is collagen Type I (purified from rat tail) (rat), P02454. Described as above. As to conditions: remark: other sources report otherwise.

B1: GroEL protein of Leptospira interrogans (recombinant, His-tagged), P61438 1-546 (natural protein)
chain: MAKDIEYNETARRKLLEGVNKLANAVKVTLGPKGRNVVIDKKFGAPTITKDGVTVAKEIELEDPLENMGAQMVKEVSTKTNDVAGDGTTTATILAQSIINEGLKNVTAGANPMSLKKGIDKAVTAAVESIQKRAVKIENKKDIANVASISANNDNTIGNLIADAMDKVGKDGVITVEEAKSIETTLDVVEGMQFDRGYISPYMVTDAESMVATLNDPFILIYDKKISSMKDLIHILEKVAQAGKPLVIISEEVEGEALATIVVNTLRKTISCVAVKAPGFGDRRKSMLEDIAILTGGQVISEDLGMKLENTTLQMLGRANKVTVDKENTTIIEGKGQTKEIQGRIGQIKKQIEDTTSEYDREKLQERLAKLAGGVAVIHVGAATEVEMKEKKARVEDALSATRAAVEEGIVPGGGLTLLKAQEAVGSLKLDGDEATGAKIIFRALEEPIRMITSNAGLEGSVIVEHAKAKKGNEGFNALTMVWEDMIQAGVVDPAKVVRSALQNAASIGSMILTTEVTITDKPDKDAPNPMAGMGGGGMGGMGGMM
Take B1: the Kd in assay [1] turned out to be 23 nM; in assay [2] it was 11 nM.
